In the supplement of paper PMC9112550, “Optimization of the antimicrobial peptide Bac7 by deep mutational scanning” (BMC Biology, 2022):

Tested on: Escherichia coli TOP10
Assay: shrunken log2 fold change of peptide-encoding DNA abundance (4.5 h post-induction vs induction); higher = less antimicrobial activity (less host growth inhibition)
Conditions: time post-induction: 4.5 h; library: site-saturation at positions 5, 18, 19, 20
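Further: peptides expressed intracellularly from a pBAD plasmid library in pooled LB shake-flask culture, induced with 0.3% L-arabinose, DNA abundance read by NGS, three biological replicates, DESeq2 with apeglm shrinkage.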

RRIRARPPRLPRPRPRPVINPRP
shrunken log2 fold change: -0.383

RRIRFRPPRLPRPRPRPVNEPRP
shrunken log2 fold change: -0.288

RRIRQRPPRLPRPRPRPRTYPRP
shrunken log2 fold change: -0.049

RRIRYRPPRLPRPRPRPICPPRP
shrunken log2 fold change: -0.471

RRIRNRPPRLPRPRPRPERYPRP
shrunken log2 fold change: 0.0573

RRIRLRPPRLPRPRPRPTVKPRP
shrunken log2 fold change: -0.0583

RRIRNRPPRLPRPRPRPKTWPRP
shrunken log2 fold change: 0.0949

RRIRARPPRLPRPRPRPPPDPRP
shrunken log2 fold change: 1.18

RRIRKRPPRLPRPRPRPFYTPRP
shrunken log2 fold change: -0.109

RRIRLRPPRLPRPRPRPELGPRP
shrunken log2 fold change: 0.0397

RRIRERPPRLPRPRPRPQPCPRP
shrunken log2 fold change: -0.312

RRIRKRPPRLPRPRPRPRKYPRP
shrunken log2 fold change: -0.211

RRIRYRPPRLPRPRPRPDYLPRP
shrunken log2 fold change: -1.57

RRIRSRPPRLPRPRPRPANCPRP
shrunken log2 fold change: -0.411

RRIRTRPPRLPRPRPRPHVVPRP
shrunken log2 fold change: -0.0414

RRIRVRPPRLPRPRPRPAWCPRP
shrunken log2 fold change: 0.211

RRIRMRPPRLPRPRPRPDAMPRP
shrunken log2 fold change: 2.44

RRIRARPPRLPRPRPRPVTYPRP
shrunken log2 fold change: -0.265

RRIRERPPRLPRPRPRPAHYPRP
shrunken log2 fold change: -0.148

RRIRCRPPRLPRPRPRPAWPPRP
shrunken log2 fold change: 0.895

RRIRMRPPRLPRPRPRPMDKPRP
shrunken log2 fold change: 0.3

RRIRNRPPRLPRPRPRPAKDPRP
shrunken log2 fold change: 0.0231

RRIRSRPPRLPRPRPRPLWQPRP
shrunken log2 fold change: 0.311

RRIRDRPPRLPRPRPRPFSCPRP
shrunken log2 fold change: 0.171

RRIRCRPPRLPRPRPRPVSMPRP
shrunken log2 fold change: -0.0967

RRIRERPPRLPRPRPRPDRNPRP
shrunken log2 fold change: -0.25

RRIRTRPPRLPRPRPRPLSWPRP
shrunken log2 fold change: 0.0654

RRIRIRPPRLPRPRPRPVFWPRP
shrunken log2 fold change: 0.201

RRIRNRPPRLPRPRPRPNKRPRP
shrunken log2 fold change: -0.221

RRIRSRPPRLPRPRPRPCDPPRP
shrunken log2 fold change: 0.0442

RRIRERPPRLPRPRPRPWLVPRP
shrunken log2 fold change: -0.436

RRIRGRPPRLPRPRPRPWVNPRP
shrunken log2 fold change: 0.0175

RRIRLRPPRLPRPRPRPPTHPRP
shrunken log2 fold change: 0.147

RRIRERPPRLPRPRPRPYEIPRP
shrunken log2 fold change: 0.0169

RRIRNRPPRLPRPRPRPTLWPRP
shrunken log2 fold change: 0.326

RRIRKRPPRLPRPRPRPMHYPRP
shrunken log2 fold change: -0.0252

RRIRWRPPRLPRPRPRPSILPRP
shrunken log2 fold change: -0.341

RRIRNRPPRLPRPRPRPQYKPRP
shrunken log2 fold change: -0.876

RRIRTRPPRLPRPRPRPSYNPRP
shrunken log2 fold change: -0.591

RRIRYRPPRLPRPRPRPPISPRP
shrunken log2 fold change: -0.501

RRIRMRPPRLPRPRPRPHVWPRP
shrunken log2 fold change: 0.281

RRIRSRPPRLPRPRPRPWQPPRP
shrunken log2 fold change: 0.155

RRIRKRPPRLPRPRPRPRGQPRP
shrunken log2 fold change: 0.648

RRIRCRPPRLPRPRPRPYSAPRP
shrunken log2 fold change: -0.752

RRIRCRPPRLPRPRPRPQWKPRP
shrunken log2 fold change: -0.0376

RRIRMRPPRLPRPRPRPQHTPRP
shrunken log2 fold change: -0.0951

RRIRGRPPRLPRPRPRPRFTPRP
shrunken log2 fold change: 0.582

RRIRRRPPRLPRPRPRPVPPPRP
shrunken log2 fold change: 0.77

RRIRQRPPRLPRPRPRPQADPRP
shrunken log2 fold change: 0.0769

RRIRPRPPRLPRPRPRPCDTPRP
shrunken log2 fold change: -0.193

RRIRGRPPRLPRPRPRPHSHPRP
shrunken log2 fold change: 0.303

RRIRVRPPRLPRPRPRPHNHPRP
shrunken log2 fold change: -0.468

RRIRYRPPRLPRPRPRPWLQPRP
shrunken log2 fold change: -0.216

RRIRPRPPRLPRPRPRPHTVPRP
shrunken log2 fold change: -0.214

RRIRLRPPRLPRPRPRPWCPPRP
shrunken log2 fold change: 0.0721

RRIRVRPPRLPRPRPRPIDFPRP
shrunken log2 fold change: -0.0311

RRIRERPPRLPRPRPRPLWGPRP
shrunken log2 fold change: 0.0859

RRIRARPPRLPRPRPRPSKCPRP
shrunken log2 fold change: -0.0295

RRIRMRPPRLPRPRPRPMCDPRP
shrunken log2 fold change: 0.709

RRIRDRPPRLPRPRPRPKAGPRP
shrunken log2 fold change: 0.143

RRIRSRPPRLPRPRPRPFKTPRP
shrunken log2 fold change: -0.0323

RRIRFRPPRLPRPRPRPKWEPRP
shrunken log2 fold change: 0.223

RRIRDRPPRLPRPRPRPCWSPRP
shrunken log2 fold change: -0.00281

RRIRWRPPRLPRPRPRPINWPRP
shrunken log2 fold change: 0.0481

RRIRCRPPRLPRPRPRPWEDPRP
shrunken log2 fold change: 0.156

RRIRSRPPRLPRPRPRPKYNPRP
shrunken log2 fold change: -0.62

RRIRHRPPRLPRPRPRPQTDPRP
shrunken log2 fold change: -1.36

RRIRKRPPRLPRPRPRPDKHPRP
shrunken log2 fold change: 0.0337

RRIRFRPPRLPRPRPRPHFPPRP
shrunken log2 fold change: -0.212

RRIRQRPPRLPRPRPRPRCDPRP
shrunken log2 fold change: -0.255

RRIRWRPPRLPRPRPRPWCVPRP
shrunken log2 fold change: -0.032

RRIRARPPRLPRPRPRPPLGPRP
shrunken log2 fold change: 0.671

RRIRARPPRLPRPRPRPIWIPRP
shrunken log2 fold change: 0.123

RRIRYRPPRLPRPRPRPCGRPRP
shrunken log2 fold change: -0.00865

RRIRWRPPRLPRPRPRPPEKPRP
shrunken log2 fold change: 0.269

RRIRVRPPRLPRPRPRPICDPRP
shrunken log2 fold change: -0.0949

RRIRQRPPRLPRPRPRPPPFPRP
shrunken log2 fold change: 0.259

RRIRDRPPRLPRPRPRPNMLPRP
shrunken log2 fold change: 0.0937

RRIRCRPPRLPRPRPRPVYMPRP
shrunken log2 fold change: -0.788

RRIRERPPRLPRPRPRPACDPRP
shrunken log2 fold change: 0.0619

RRIRPRPPRLPRPRPRPWEMPRP
shrunken log2 fold change: -0.157

RRIRTRPPRLPRPRPRPFKVPRP
shrunken log2 fold change: 0.0475

RRIRIRPPRLPRPRPRPSLQPRP
shrunken log2 fold change: -0.331

RRIRFRPPRLPRPRPRPCKGPRP
shrunken log2 fold change: 0.000407

RRIRPRPPRLPRPRPRPDDDPRP
shrunken log2 fold change: -0.175

RRIRYRPPRLPRPRPRPNFHPRP
shrunken log2 fold change: -0.612

RRIRMRPPRLPRPRPRPFFIPRP
shrunken log2 fold change: -0.247

RRIRQRPPRLPRPRPRPKKAPRP
shrunken log2 fold change: -0.15

RRIRKRPPRLPRPRPRPVGYPRP
shrunken log2 fold change: 0.00938

RRIRKRPPRLPRPRPRPRYEPRP
shrunken log2 fold change: 0.362

RRIRDRPPRLPRPRPRPLYSPRP
shrunken log2 fold change: -0.411

RRIRHRPPRLPRPRPRPKKIPRP
shrunken log2 fold change: -0.129

RRIRIRPPRLPRPRPRPIVQPRP
shrunken log2 fold change: -0.158

RRIRIRPPRLPRPRPRPKFPPRP
shrunken log2 fold change: -0.204

RRIRVRPPRLPRPRPRPRQDPRP
shrunken log2 fold change: 0.582

RRIRSRPPRLPRPRPRPNDKPRP
shrunken log2 fold change: -0.553

RRIRSRPPRLPRPRPRPKMQPRP
shrunken log2 fold change: 0.055

RRIRDRPPRLPRPRPRPLMRPRP
shrunken log2 fold change: 0.665

RRIRDRPPRLPRPRPRPGHKPRP
shrunken log2 fold change: 0.00794

RRIRLRPPRLPRPRPRPCDQPRP
shrunken log2 fold change: -0.016

RRIRKRPPRLPRPRPRPTCIPRP
shrunken log2 fold change: -0.176

RRIRERPPRLPRPRPRPSYMPRP
shrunken log2 fold change: -0.0864

RRIRDRPPRLPRPRPRPLHIPRP
shrunken log2 fold change: -0.0915

RRIRFRPPRLPRPRPRPQMNPRP
shrunken log2 fold change: -0.709

RRIRRRPPRLPRPRPRPNFEPRP
shrunken log2 fold change: 0.413

RRIRSRPPRLPRPRPRPATLPRP
shrunken log2 fold change: -0.0555

RRIRSRPPRLPRPRPRPPGYPRP
shrunken log2 fold change: 0.0642

RRIRWRPPRLPRPRPRPVYCPRP
shrunken log2 fold change: -0.196

RRIRHRPPRLPRPRPRPAEFPRP
shrunken log2 fold change: 0.108

RRIRGRPPRLPRPRPRPSANPRP
shrunken log2 fold change: 0.858

RRIRIRPPRLPRPRPRPAQPPRP
shrunken log2 fold change: 0.213

RRIRERPPRLPRPRPRPGPIPRP
shrunken log2 fold change: 0.0264

RRIRCRPPRLPRPRPRPQCHPRP
shrunken log2 fold change: 0.134

RRIRRRPPRLPRPRPRPVGGPRP
shrunken log2 fold change: 0.984

RRIRVRPPRLPRPRPRPYTDPRP
shrunken log2 fold change: -0.339

RRIRKRPPRLPRPRPRPEAKPRP
shrunken log2 fold change: 2.54

RRIRDRPPRLPRPRPRPGNNPRP
shrunken log2 fold change: -0.125

RRIRIRPPRLPRPRPRPPVAPRP
shrunken log2 fold change: 0.123

RRIRCRPPRLPRPRPRPPGYPRP
shrunken log2 fold change: 0.422

RRIRFRPPRLPRPRPRPCTQPRP
shrunken log2 fold change: -0.549

RRIRWRPPRLPRPRPRPLICPRP
shrunken log2 fold change: 0.803

RRIRDRPPRLPRPRPRPDFQPRP
shrunken log2 fold change: 0.189

RRIRWRPPRLPRPRPRPLWFPRP
shrunken log2 fold change: 0.134

RRIRLRPPRLPRPRPRPVFGPRP
shrunken log2 fold change: 0.0724

RRIRCRPPRLPRPRPRPKTRPRP
shrunken log2 fold change: 0.305

RRIRIRPPRLPRPRPRPFHGPRP
shrunken log2 fold change: -0.146

RRIRDRPPRLPRPRPRPNPEPRP
shrunken log2 fold change: 0.0935

RRIRQRPPRLPRPRPRPGEFPRP
shrunken log2 fold change: 0.313

RRIRWRPPRLPRPRPRPSLSPRP
shrunken log2 fold change: 1.36

RRIRYRPPRLPRPRPRPNFMPRP
shrunken log2 fold change: -0.821

RRIRYRPPRLPRPRPRPELHPRP
shrunken log2 fold change: -0.143

RRIRCRPPRLPRPRPRPPGVPRP
shrunken log2 fold change: 0.158

RRIRNRPPRLPRPRPRPARRPRP
shrunken log2 fold change: 0.294

RRIRNRPPRLPRPRPRPSAYPRP
shrunken log2 fold change: -0.42

RRIRERPPRLPRPRPRPENQPRP
shrunken log2 fold change: -0.174

RRIRQRPPRLPRPRPRPWIIPRP
shrunken log2 fold change: -0.329

RRIRGRPPRLPRPRPRPECIPRP
shrunken log2 fold change: 1.67

RRIRKRPPRLPRPRPRPWEVPRP
shrunken log2 fold change: 0.0986

RRIRGRPPRLPRPRPRPCIVPRP
shrunken log2 fold change: 0.201

RRIRHRPPRLPRPRPRPQWPPRP
shrunken log2 fold change: 0.112

RRIRVRPPRLPRPRPRPAHPPRP
shrunken log2 fold change: 0.0808

RRIRERPPRLPRPRPRPPKVPRP
shrunken log2 fold change: -0.0931

RRIRWRPPRLPRPRPRPGYHPRP
shrunken log2 fold change: -0.263

RRIRRRPPRLPRPRPRPIVEPRP
shrunken log2 fold change: 0.136

RRIRKRPPRLPRPRPRPRMSPRP
shrunken log2 fold change: -0.216

RRIRTRPPRLPRPRPRPEAAPRP
shrunken log2 fold change: 0.574

RRIRNRPPRLPRPRPRPVFNPRP
shrunken log2 fold change: -0.242

RRIRMRPPRLPRPRPRPNLLPRP
shrunken log2 fold change: -0.103

RRIRRRPPRLPRPRPRPPHKPRP
shrunken log2 fold change: 1.77

RRIRMRPPRLPRPRPRPTSFPRP
shrunken log2 fold change: 0.347
